Assay results reported in US20150148520A1 (INDIANA UNIVERSITY RESEARCH AND TECHNOLOGY, published 2015).
Bridges are numbered along the chain shown (N, C = ends). Roman numbers before positions name the chains, in order. Where no end group is shown, it is not given here. [ ]: non-standard residue; d: D form. Phe(4-NH2) = Nc1ccc(C[C@H](N)C(=O)O)cc1

B1: IGF-1 A: B (E10Y16L17)-E31E32 B-COOH (ligand)
chain 1: GIVDECCFRSCDLRRLEMYCA-NH2
chain 2: GPETLCGAELVDALYLVCGDRGFYFNKPTEE-OH
modifications: disulfide I:6-I:11, I:20-II:18, I:7-II:6; ends not checked
B2: IGF-1 A (H8 A9 N21): B(H5D10Y16L17) DPI A-COOH (ligand)
chain 1: GIVDECCHASCDLRRLEMYCN-OH
chain 2: GPEHLCGADLVDALYLVCGDRGFY-NH2
modifications: disulfide I:6-I:11, I:20-II:18, I:7-II:6; ends not checked
B3: IGF1 A:B(Y^B16L^B17)(p-NH2-F)^A19amide (ligand)
chain 1: GIVDECCFRSCDLRRLEM[Phe(4-NH2)]CA
chain 2: GPETLCGAELVDALYLVCGDRGFYFNKPT-NH2
modifications: disulfide (positions not given here); not fully specified (bridges); also: C-terminal amide, chain not given here
B4: IGF-1 A (H8 A9 N21): B (H5D10Y16L17 A22) DPI A-COOH (ligand)
chain 1: GIVDECCHASCDLRRLEMYCN-OH
chain 2: GPEHLCGADLVDALYLVCGDAGFY
modifications: not fully specified (C-terminus); ends and bridges not checked
B5: IGF-1 A: B (H5D10Y16L17) DPI (ligand)
chain 1: GIVDECCFRSCDLRRLEMYCA-NH2
chain 2: GPEHLCGADLVDALYLVCGDRGFY-NH2
modifications: disulfide I:6-I:11, I:20-II:18, I:7-II:6; ends not checked
B6: IGF-1 A: B (E10Y16L17) DPI (ligand)
A chain: GIVDECCFRSCDLRRLEMYCA-NH2
B chain: GPETLCGAELVDALYLVCGDRGFY-NH2
modifications: disulfide I:6-I:11, I:20-II:18, I:7-II:6; not fully specified
B7: IGF-1 A: IGF-1 B (1-8)-In (9-17)-IGF-1 B (18-30) (ligand)
chain 1: GIVDECCFRSCDLRRLEMYCA-NH2
chain 2: GPETLCGSHLVEALYLVCGDRGFYFNKPT-NH2
modifications: disulfide I:6-I:11, I:20-II:18, I:7-II:6; ends not checked
B8: IGF-1 A: B (D10Y16L17) DPI A-COOH (ligand)
chain 1: GIVDECCFRSCDLRRLEMYCA-OH
chain 2: GPETLCGADLVDALYLVCGDRGFY-NH2
modifications: disulfide I:6-I:11, I:20-II:18, I:7-II:6; ends not checked
B9: IGF-1 A: In (1-17)-IGF-1 B (18-30) (ligand)
chain 1: GIVDECCFRSCDLRRLEMYCA-NH2
chain 2: FVNQHLCGSHLVEALYLVCGDRGFYFNKPT-NH2
modifications: disulfide I:6-I:11, I:20-II:19, I:7-II:7; ends not checked
B10: IGF-1 A: In B (1-5)-IGF-1 B (YL) (6-30) (ligand)
A chain: GIVDECCFRSCDLRRLEMYCA-NH2
B chain: FVNQHLCGAELVDALYLVCGDRGFYFNKPT-NH2
modifications: disulfide I:6-I:11, I:20-II:19, I:7-II:7; not fully specified

Assays:
human IGF-1 receptor [1] = target: T1, human IGF-1 receptor (human, UniProt P08069 31-1367); test: SPA competition, [125I]-IGF-1, IGF-1R membranes
T1 construct: whole, on cells; Phosphorylation assay: receptor transfected HEK293 cells; also called IGF-1
Experimental: (§1) Non-specifically bound (NSB) radioactivity was measured in the wells with a four-fold concentration excess of “cold” native ligand than the highest concentration in test samples. Total bound radioactivity was detected in the wells with no competitor. Percent specific binding was calculated as following: % Specific Binding=(Bound-NSB/Total bound-NSB)×100. IC50 values were determined by using Origin software (OriginLab, Northampton, Mass.).

human IGF-1 receptor [2] = target: T1, human IGF-1 receptor; test: cell-based or functional assay
human insulin receptor [3] = target: T2, human insulin receptor (human, UniProt P06213 28-1382); test: SPA competition, [125I]-insulin, IR membranes
T2 construct: whole, on cells; Phosphorylation assay: receptor transfected HEK293 cells; also called Insulin
Experimental: as §1

human insulin receptor [4] = target: T2, human insulin receptor; test: cell-based or functional assay

| Binder | activity (0.55 nM) (human IGF-1 receptor [1]) [%] | % IGF (human IGF-1 receptor [2]) [%] | also measured |
| --- | --- | --- | --- |
| B1 | 3.1 | – | – |
| B2 | 13.6 | 181 | – |
| B3 | – | – | IC50 (human insulin receptor [3]): 1.08 nM |
| B4 | 2.4 | 7.7 | % IGF-1 (in test) (human IGF-1 receptor [1]): 2.3%; IC50 (human IGF-1 receptor [1]): 22.8 nM |
| B5 | 11.8 | 7.1 | – |
| B6 | 2.4 | – | – |
| B7 | 0.4 | – | – |
| B8 | 8.1 | 112 | % Insulin (human insulin receptor [4]): 1580% |
| B9 | 0.9 | – | – |
| B10 | 2 | – | – |
